Assay results reported in the supplement of paper PMC10724198.
± gives the standard deviation of the averaged measurements.

Test system: Saccharomyces cerevisiae
Test: protein stability index of tFT-peptide fusion (C-terminal peptide) (PSI (0-1 scale)); higher = more stable (slower turnover)
Conditions: genetic background: wild type; temperature: 30 C
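Note: PSI is a weighted mean of sequencing reads over stability bins, variants kept only with over 10 reads, mCherry proximal and sfGFP distal, peptide attached via GGGS linker.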

Row | Sequence | protein stability index
1 | SLFFPLPLSSLF | 0.736 ± 0.07
2 | LPVPLYPTPALL | 0.666 ± 0.14
3 | PPPPYPLPASCL | 0.653 ± 0.058
4 | CERHWADRNTSV | 0.7445 ± 0.0064
5 | HSSPPPAPPPLP | 0.697 ± 0.019
6 | CFCWLFLVGRAD | 0.5734 ± 0.0024
7 | HPFARGPLSRHP | 0.7 ± 0.081
8 | GVWCFPVGVFRA | 0.529 ± 0.011
9 | LSARAKRTVTFL | 0.593 ± 0.043
10 | PSAQPPPRPTRP | 0.6878 ± 0.0036
11 | TPSRLPPPLRSP | 0.703 ± 0.004
12 | EKIKKQITRTRR | 0.6652 ± 0.0053
13 | TQRLPTPPSIPL | 0.672 ± 0.017
14 | RESVSPCLVGAV | 0.616 ± 0.056
15 | PCDCAHPVLRPM | 0.634 ± 0.069
16 | PQVLSPPLSTSR | 0.728 ± 0.008
17 | VHSMSRTFARPV | 0.683 ± 0.051
18 | TTKRQKRKKKQR | 0.633 ± 0.015
19 | PSFLSPCPPFLS | 0.747 ± 0.039
20 | CVGQYVHWDLLV | 0.549 ± 0.011
21 | RRIQNHPDSTSA | 0.696 ± 0.067
22 | SLPPSFPPPFLF | 0.7355 ± 0.001
23 | PSLPPPSPSPPP | 0.666 ± 0.05
24 | LPSPSYPAPVPN | 0.65 ± 0.074
25 | CTAVGFISFWMA | 0.629 ± 0.081

Row | Sequence | protein stability index
26 | LCGVWWGWWVGL | 0.576 ± 0.026
27 | TYWAPPFPLSLP | 0.52 ± 0.019
28 | TLPARPSVPLPP | 0.629 ± 0.06
29 | VGLAVWAAKLGR | 0.739 ± 0.018
30 | PSSLSSLPPPSP | 0.669 ± 0.024
31 | AGVGMGAVAGGS | 0.705 ± 0.02
32 | PASPLFAPSVVP | 0.747 ± 0.0086
33 | LALKYLGQLIGA | 0.594 ± 0.024
34 | PPPAPPPPPPLP | 0.7026 ± 0.0022
35 | PSHLNAPTTAPP | 0.701 ± 0.038
36 | ISGIKNKKKKGT | 0.684 ± 0.066
37 | IVPPPHRHRRSI | 0.824 ± 0.064
38 | CLGRLRLMSSCR | 0.688 ± 0.044
39 | PLFPACYFHPFD | 0.746 ± 0.032
40 | GGAVRSGRLFCC | 0.648 ± 0.022
41 | GPGGVGVTSGGK | 0.679 ± 0.062
42 | RQDGSPREGIRH | 0.713 ± 0.04
43 | LRRPSPPAPPPP | 0.718 ± 0.11
44 | RSGSGGVAGRRE | 0.692 ± 0.022
45 | GSMTGYVRVGEG | 0.57 ± 0.0064
46 | SPSSSPSPFPVP | 0.731 ± 0.063
47 | RKNENKKKKNKK | 0.702 ± 0.012
48 | PTSPHPPPCSPP | 0.724 ± 0.22
49 | LWLCLCCSPFFV | 0.658 ± 0.1
50 | PLSFPALFSPLS | 0.684 ± 0.034

Row | Sequence | protein stability index
51 | CICFLDGCSFVN | 0.755 ± 0.14
52 | ELWCLGVLGGDV | 0.708 ± 0.0089
53 | FANKLYSVFMDN | 0.655 ± 0.13
54 | IKRVPRRSEYRG | 0.633 ± 0.043
55 | SSLLLLFYPPLP | 0.712 ± 0.016
56 | FLPTALTQPLIT | 0.624 ± 0.028
57 | FNVSCLRPNMGE | 0.712 ± 0.044
58 | PLSLICLLKSYL | 0.708 ± 0.025
59 | RPTQYIYGINET | 0.6525 ± 0.0034
60 | CRILSPLPAIFV | 0.5298 ± 0.0045
61 | PPAPRVSPPPPP | 0.712 ± 0.073
62 | VLLRVSEQVSRV | 0.676 ± 0.1
63 | GSLFVNRNCTVS | 0.697 ± 0.19
64 | SDFLTYAEARLD | 0.72 ± 0.12
65 | YPYLLSPRPPPP | 0.628 ± 0.047
66 | PPPTLPSPPSPP | 0.712 ± 0.011
67 | PAVISLLPVWFT | 0.691 ± 0.015
68 | CFLPGFYFLFSI | 0.561 ± 0.033
69 | TPTRPLSSALRL | 0.697 ± 0.05
70 | GGGGSCWYGNRL | 0.6353 ± 0.0027
71 | LTLPSDSSALPA | 0.748 ± 0.03
72 | DRAPPPPRSSPL | 0.733 ± 0.076
73 | PPPRPRLSRLLH | 0.6114 ± 0.0012
74 | LSASHVMSLTNL | 0.698 ± 0.028
75 | KGQPTTRVKEEW | 0.654 ± 0.0091

Row | Sequence | protein stability index
76 | PDSHPPAPPSPP | 0.704 ± 0.031
77 | KKENKERNNEYE | 0.708 ± 0.081
78 | RVLPSDSPVAPA | 0.667 ± 0.044
79 | FFVRCTEWLGED | 0.6161 ± 0.0039
80 | GHGGSKIYCLVD | 0.637 ± 0.062
81 | RLWKQPWLTMAF | 0.496 ± 0.038
82 | RTSNARLLPRIG | 0.681 ± 0.034
83 | EVPGALISLHFY | 0.654 ± 0.038
84 | VRCAVVTMDLTL | 0.691 ± 0.05
85 | KTECMAIEKTLV | 0.686 ± 0.033
86 | PPRTMTLSAPLT | 0.708 ± 0.02
87 | GQKKARGRGGGM | 0.737 ± 0.0077
88 | LNDYGLADLGII | 0.731 ± 0.0076
89 | PGGTDGYSGLEK | 0.689 ± 0.011
90 | SIRNNMKRVRKN | 0.631 ± 0.022
91 | PHPPSCPLTPPP | 0.666 ± 0.015
92 | PRSPLRYPPHCP | 0.691 ± 0.035
93 | RFTIPFSVQRVD | 0.721 ± 0.094
94 | TESGVCWCRREV | 0.685 ± 0.04
95 | LLKLSVPPSLYV | 0.5722 ± 0.0011
96 | PSPRASLPRLPP | 0.597 ± 0.074
97 | STVKARVLIITS | 0.5231 ± 0.0032
98 | GQIVFDNSGSRW | 0.6955 ± 0.0028
99 | FGRAGAGERRGA | 0.722 ± 0.28
100 | SPVGCYAIIARM | 0.628 ± 0.042

Row | Sequence | protein stability index
101 | PRTSSPPRPFRF | 0.624 ± 0.022
102 | RLPPPPSPPPPP | 0.688 ± 0.016
103 | LPAPARPPLVCS | 0.605 ± 0.048
104 | LLGWRFFYLGVG | 0.688 ± 0.051
105 | TFREMPESIGNG | 0.654 ± 0.047
106 | DGGIVTVSLGWC | 0.662 ± 0.064
107 | KFKVLKVLEVRL | 0.6453 ± 0.0019
108 | TVLRPKERQEHN | 0.721 ± 0.038
109 | GGGEGREEQEGR | 0.701 ± 0.019
110 | ALESHFMVPSFP | 0.693 ± 0.043
111 | FPPPPPRPPRLP | 0.68 ± 0.075
112 | SRPPTFPPFFPS | 0.702 ± 0.015
113 | ASSPLFLPAIQP | 0.63 ± 0.06
114 | KELIGITYKNSS | 0.6766 ± 0.0058
115 | RCGGGKWGRGAE | 0.69683 ± 0.00067
116 | FGVVLEGAGWGG | 0.73742 ± 0.00056
117 | CGAGIYTRCTGR | 0.6613 ± 0.001
118 | HFSSLDPFLPSL | 0.712 ± 0.016
119 | AVLTDKKGRVRS | 0.703 ± 0.036
120 | GGCRQKPRGGAD | 0.666 ± 0.09
121 | LDLLRCIQHCVV | 0.637 ± 0.027
122 | EAIMNSLLFAVD | 0.664 ± 0.0088
123 | WGLGVGGCGWVG | 0.67 ± 0.018
124 | SPPPTPLPPPPP | 0.628 ± 0.094
125 | EGEERGEGQVRA | 0.675 ± 0.0068

Row | Sequence | protein stability index
126 | DLSMIPEWICIV | 0.547 ± 0.054
127 | KGKKTKQKRAKK | 0.6521 ± 0.0064
128 | PLPWIFHCRAPL | 0.719 ± 0.048
129 | WHGDDSSIWQVG | 0.791 ± 0.036
130 | AASSDGWHTGGA | 0.694 ± 0.0032
131 | ESIQAASANDSQ | 0.688 ± 0.043
132 | LGPGGVAWGAWW | 0.7623 ± 0.0022
133 | SHLMETPACSAP | 0.915 ± 0.082
134 | VVGAVFFGCRLL | 0.6 ± 0.15
135 | GIRAEPSGGQAE | 0.692 ± 0.057
136 | GESSLSTGAQHK | 0.67 ± 0.021
137 | GARGIHSVRVRR | 0.713 ± 0.053
138 | YLYMESTVESHL | 0.719 ± 0.025
139 | SVFFFLPIYFPF | 0.633 ± 0.033
140 | RGVLRSETCRLS | 0.7104 ± 0.0069
141 | RPSLTPSPPPFP | 0.64 ± 0.018
142 | GCGGVGGFGGGL | 0.605 ± 0.047
143 | HRLWAGWGLEQC | 0.712 ± 0.013
144 | CGGRWGTYYRRV | 0.7 ± 0.042
145 | TSPPPPSPPPPP | 0.785 ± 0.13
146 | SEAFDSSARRAL | 0.541 ± 0.043
